Measurements: patent US20120315270A1 (UNITED STATES OF AMERICA AS REPRESENTED BY THE, published 2012)
Where two headings read alike, the source gives them in different places.

Experiments:
[1] = target: T1, Motavizumab fragment of antigen binding (Fab); experiment: SPR (Biacore), motavizumab Fab immobilised, immunogen injected
T1 construct: also called motavizumab Fab

[2] = target: T1, Motavizumab fragment of antigen binding …; experiment: as above; remark: listed apart in the source
[3] = target: motavizumab (as used in ITC); experiment: ITC
[4] = target: RSV F glycoprotein on GFP-expressing RSV (respiratory syncytial virus, UniProt P03420 26-574); experiment: cell-based or functional assay
1lp1b-003_K272E = target: T2, 1lp1b-003_K272E; experiment: SPR (Example 7)
T2 construct: also called 1lp1b(K272E)

1lp1b-003 F2Y H15N = experiment: co-crystallization

B1: 1s2xa_002 (designed binder)
chain: GSPNSRVDELGFNEAERQKILDSNSSLMRNANEVRDKFIQNYATSLKDSNDPQDFLRRVQELRINMQKNFISFDAYYNYLNNLVLASANRASQELSFINDTIKNNDTKKLFSNEAADNFNNFTADEVARISDLVASYLPREYLPPFIDGNMMGVAFQILGIDDFGKKLNEIVQDIGTKY
Question: With B1 as the binder, how does the Kd [1] read?
Answer: 3.64 µM

Question: What about the Kd [2] of the same binder?
Answer: 3.64 µM

B2: 1s2xa_001 (designed binder)
chain: GSPNSRVDELGFNEAERQKILDSNSSLMRNANEVRDKFIQNYATSLKDSNDPQDFLRRVQELRINMQKNFISFDAYYNYLNNLVLASANRCSQELSFANDTIKNNDTKKLFSNEIADNFNNFTADEVARISDLVASYLPREYLPPFIDGNMMGVAFQILGIDDFGKKLNEIVQDIGTKY
Question: Which Kd [1] does the source give for B2 here?
Answer: 4.75 µM

Question: What about the Kd [2] of the same binder?
Answer: 4.75 µM

B3: 1s2xa_003 (designed binder)
chain: GSPNSRVDELGFNEAERQKILDSNSSLMRNANEVRDKFIQNYATSLKDSNDPQDFLRRVQELRINMQKNFISFDAYYNYLNNLVLASANRASQELSFANDTIKNNDTKKLFSNEIADNFNNFTADEVARISDLVASYLPREYLPPFIDGNMMGVAFQILGIDDFGKKLNEIVQDIGTK
notes: also called Cag-Z
Question: For B3, which Kd [1] is on record?
Answer: 3 µM

Question: What about the Kd [2] of the same binder?
Answer: 3 µM

Question: What about the “-TdS” value [3] of the same binder?
Answer: 9.9

Question: And the Kd [3]?
Answer: 147 nM

Question: What about the dH [3] of the same binder?
Answer: -19.2

B4: 1s2xa_004 (designed binder)
chain: GSPNSRVDELGFNEAERQKILDSNSSLMRNANEVRDKFIQNYATSLKDSNDPQDFLRRVQELRINMQKNFISFDAYYNYLNNLVLASANRASQELSFINDTIKNNDTKKLFSNEAADNFNNFTADEVARISDLVASYLPREYLPPFIDGNMMGVAFQILGIDDFGKKLNEIVQDIGTK
Question: How did the Kd [1] turn out when B4 was run?
Answer: 3.95 µM

Question: And the “-TdS” value [3]?
Answer: 10.7

Question: And the Kd [3]?
Answer: 275 nM

Question: And the dH [3]?
Answer: -19.6

B5: motavizumab IgG (antibody, V domains shown)
VH: QVTLRESGPALVKPTQTLTLTCTFSGFSLSTAGMSVGWIRQPPGKALEWLADIWWDDKKHYNPSLKDRLTISKDTSKNQVVLKVTNMDPADTATYYCARDMIFNFYFDVWGQGTTVTVSS
VL: DIQMTQSPSTLSASVGDRVTITCSASSRVGYMHWYQQKPGKAPKLLIYDTSKLASGVPSRFSGSGSGTEFTLTISSLQPDDFATYYCFQGSGYPFTFGGGTKVEIK
Question: For B5, which “EC50 (read off the curve), neutralization of GFP-expressing RSV on HEp-2 cells, flow cytometry” value [4] is on record?
Answer: ~0.06 nM

B6: motavizumab Fab (Fab, V domains shown)
VH: QVTLRESGPALVKPTQTLTLTCTFSGFSLSTAGMSVGWIRQPPGKALEWLADIWWDDKKHYNPSLKDRLTISKDTSKNQVVLKVTNMDPADTATYYCARDMIFNFYFDVWGQGTTVTVSS
VL: DIQMTQSPSTLSASVGDRVTITCSASSRVGYMHWYQQKPGKAPKLLIYDTSKLASGVPSRFSGSGSGTEFTLTISSLQPDDFATYYCFQGSGYPFTFGGGTKVEIK
notes: also called the Fab
Question: Does B6 bind (1lp1b-003_K272E)?
Answer: no binding

B7: motavizumab (format in the assay not stated) (antibody, V domains shown)
VH: QVTLRESGPALVKPTQTLTLTCTFSGFSLSTAGMSVGWIRQPPGKALEWLADIWWDDKKHYNPSLKDRLTISKDTSKNQVVLKVTNMDPADTATYYCARDMIFNFYFDVWGQGTTVTVSS
VL: DIQMTQSPSTLSASVGDRVTITCSASSRVGYMHWYQQKPGKAPKLLIYDTSKLASGVPSRFSGSGSGTEFTLTISSLQPDDFATYYCFQGSGYPFTFGGGTKVEIK
Question: Does B7 bind (1lp1b-003 F2Y H15N)?
Answer: binds

B8: 2eiaa_001 (designed binder)
chain: APRGYTTWVNTIQTNGLLNEASQNLFGILSVDATSEEMNAFLDVVPGQAGQKQILLDAIDKIADDWDNRHPLPNAPLVAPPQGPIPMTARFIRGLGVPRERQMEPAFDQFRQTYRQWIIEAMSEGIKVMIGKPKAQNIRQGAKEPYPEFVSRLLSQINDEGHPNDIKKLRSNTLTIQNANEECRNAMRHLRPSDTGAEKMYACRDIG
Question: Does B8 bind [1]?
Answer: no binding
